Experimental data reported in the Human Domainome abundance scans (Beltran et al. 2025).
± gives the uncertainty stated by the source.

B1: Ankyrin-1, residues 1405 to 1484; numbered along this chain, P16157 (parent)
chain: MKMAVISEHLGLSWAELARELQFSVEDINRIRVENPNSLLEQSVALLNLWVIREGQNANMENLYTALQSIDRGEIVNMLE

Variants of: B1
Assay: abundance fitness (aPCA) (normalised: wild type 0, dead -1); higher = more abundant; growth selection in yeast, the domain comes from the species named
Details: Homo sapiens

Variant | abundance fitness
MKMAVISEHLGLSWAELARELQFSCEDINRIRVENPNSLLEQSVALLNLWVIREGQNANMENLYTALQSIDRGEIVNMLE | -0.161 ± 0.083
MKMAVISEHLGLSWAELARELQFSDEDINRIRVENPNSLLEQSVALLNLWVIREGQNANMENLYTALQSIDRGEIVNMLE | -0.05 ± 0.1
MKMAVISEHLGLSWAELARELQFSEEDINRIRVENPNSLLEQSVALLNLWVIREGQNANMENLYTALQSIDRGEIVNMLE | 0.078 ± 0.06
MKMAVISEHLGLSWAELARELQFSGEDINRIRVENPNSLLEQSVALLNLWVIREGQNANMENLYTALQSIDRGEIVNMLE | -0.119 ± 0.038
MKMAVISEHLGLSWAELARELQFSHEDINRIRVENPNSLLEQSVALLNLWVIREGQNANMENLYTALQSIDRGEIVNMLE | 0.159 ± 0.085
MKMAVISEHLGLSWAELARELQFSIEDINRIRVENPNSLLEQSVALLNLWVIREGQNANMENLYTALQSIDRGEIVNMLE | -0.143 ± 0.21
MKMAVISEHLGLSWAELARELQFSKEDINRIRVENPNSLLEQSVALLNLWVIREGQNANMENLYTALQSIDRGEIVNMLE | -0.005 ± 0.11
MKMAVISEHLGLSWAELARELQFSLEDINRIRVENPNSLLEQSVALLNLWVIREGQNANMENLYTALQSIDRGEIVNMLE | -0.073 ± 0.036
MKMAVISEHLGLSWAELARELQFSMEDINRIRVENPNSLLEQSVALLNLWVIREGQNANMENLYTALQSIDRGEIVNMLE | -0.056 ± 0.12
MKMAVISEHLGLSWAELARELQFSNEDINRIRVENPNSLLEQSVALLNLWVIREGQNANMENLYTALQSIDRGEIVNMLE | 0.114 ± 0.14
MKMAVISEHLGLSWAELARELQFSPEDINRIRVENPNSLLEQSVALLNLWVIREGQNANMENLYTALQSIDRGEIVNMLE | 0.018 ± 0.076
MKMAVISEHLGLSWAELARELQFSQEDINRIRVENPNSLLEQSVALLNLWVIREGQNANMENLYTALQSIDRGEIVNMLE | -0.03 ± 0.066
MKMAVISEHLGLSWAELARELQFSREDINRIRVENPNSLLEQSVALLNLWVIREGQNANMENLYTALQSIDRGEIVNMLE | -0.07 ± 0.046
MKMAVISEHLGLSWAELARELQFSSEDINRIRVENPNSLLEQSVALLNLWVIREGQNANMENLYTALQSIDRGEIVNMLE | 0.002 ± 0.054
MKMAVISEHLGLSWAELARELQFSTEDINRIRVENPNSLLEQSVALLNLWVIREGQNANMENLYTALQSIDRGEIVNMLE | -0.159 ± 0.079
MKMAVISEHLGLSWAELARELQFSWEDINRIRVENPNSLLEQSVALLNLWVIREGQNANMENLYTALQSIDRGEIVNMLE | -0.265 ± 0.069
MKMAVISEHLGLSWAELARELQFSYEDINRIRVENPNSLLEQSVALLNLWVIREGQNANMENLYTALQSIDRGEIVNMLE | 0.143 ± 0.097
MKMAVISEHLGLSWAELARELQFSVADINRIRVENPNSLLEQSVALLNLWVIREGQNANMENLYTALQSIDRGEIVNMLE | -0.2 ± 0.066

Variant | abundance fitness
MKMAVISEHLGLSWAELARELQFSVFDINRIRVENPNSLLEQSVALLNLWVIREGQNANMENLYTALQSIDRGEIVNMLE | -0.369 ± 0.14
MKMAVISEHLGLSWAELARELQFSVGDINRIRVENPNSLLEQSVALLNLWVIREGQNANMENLYTALQSIDRGEIVNMLE | -0.127 ± 0.039
MKMAVISEHLGLSWAELARELQFSVHDINRIRVENPNSLLEQSVALLNLWVIREGQNANMENLYTALQSIDRGEIVNMLE | -0.113 ± 0.2
MKMAVISEHLGLSWAELARELQFSVIDINRIRVENPNSLLEQSVALLNLWVIREGQNANMENLYTALQSIDRGEIVNMLE | -0.303 ± 0.15
MKMAVISEHLGLSWAELARELQFSVKDINRIRVENPNSLLEQSVALLNLWVIREGQNANMENLYTALQSIDRGEIVNMLE | -0.059 ± 0.073
MKMAVISEHLGLSWAELARELQFSVLDINRIRVENPNSLLEQSVALLNLWVIREGQNANMENLYTALQSIDRGEIVNMLE | -0.153 ± 0.053
MKMAVISEHLGLSWAELARELQFSVMDINRIRVENPNSLLEQSVALLNLWVIREGQNANMENLYTALQSIDRGEIVNMLE | -0.189 ± 0.1
MKMAVISEHLGLSWAELARELQFSVNDINRIRVENPNSLLEQSVALLNLWVIREGQNANMENLYTALQSIDRGEIVNMLE | 0.016 ± 0.15
MKMAVISEHLGLSWAELARELQFSVPDINRIRVENPNSLLEQSVALLNLWVIREGQNANMENLYTALQSIDRGEIVNMLE | -0.371 ± 0.089
MKMAVISEHLGLSWAELARELQFSVQDINRIRVENPNSLLEQSVALLNLWVIREGQNANMENLYTALQSIDRGEIVNMLE | -0.119 ± 0.098
MKMAVISEHLGLSWAELARELQFSVRDINRIRVENPNSLLEQSVALLNLWVIREGQNANMENLYTALQSIDRGEIVNMLE | -0.104 ± 0.051
MKMAVISEHLGLSWAELARELQFSVSDINRIRVENPNSLLEQSVALLNLWVIREGQNANMENLYTALQSIDRGEIVNMLE | -0.071 ± 0.055
MKMAVISEHLGLSWAELARELQFSVTDINRIRVENPNSLLEQSVALLNLWVIREGQNANMENLYTALQSIDRGEIVNMLE | 0.023 ± 0.094
MKMAVISEHLGLSWAELARELQFSVVDINRIRVENPNSLLEQSVALLNLWVIREGQNANMENLYTALQSIDRGEIVNMLE | -0.233 ± 0.064
MKMAVISEHLGLSWAELARELQFSVWDINRIRVENPNSLLEQSVALLNLWVIREGQNANMENLYTALQSIDRGEIVNMLE | -0.197 ± 0.054
MKMAVISEHLGLSWAELARELQFSVYDINRIRVENPNSLLEQSVALLNLWVIREGQNANMENLYTALQSIDRGEIVNMLE | 0.064 ± 0.15
MKMAVISEHLGLSWAELARELQFSVEAINRIRVENPNSLLEQSVALLNLWVIREGQNANMENLYTALQSIDRGEIVNMLE | -0.071 ± 0.069
